Measurements reported in patent US20100279937A1, “Method of Inhibiting Angiogenesis, Tumorigenesis and Cathepsin Activity” (priority 2006, published 2010).
Each block holds one molecule with its values, some of them ahead of it.

Key:
[1] = test system: U87MG cells; assay: U87MG growth in semi-solid (soft) agar; format: cell-based, human; details: Alamar Blue
Description: […] Approximately 15,000 cells±treatment were resuspended in 150 μl medium containing 0.3% agar, and seeded onto a well of a 24-well plate previously layered with 250 μl 0.6% agar. The solidified cell layer was covered with 50 μl DME±treatment which was replaced every three days over a 21 day period. Phase contrast images (6 fields/well) were captured using a digital video camera (Olympus U-CMT) and analyzed with Northern Eclipse v.5.0 software. Color images were transformed to grey scale, thresholded, and then converted to binary images. Number and area of colonies per field were calculated. In order to measure cell viability, at the end of the experiment, 40 μl alamar blue was added to each well and fluorescence readings were performed every 10 min for a period of 180 min. Experiments were repeated 2-3 times in triplicates.

[2] = test system: U87MG cells; details: disclosed in copending PCT/CA2006/000250; cited from earlier work
[3] = test system: human brain endothelial cells (HBEC); assay: Capillary-like tube (CLT) formation by HBEC on Matrigel (in vitro angiogenesis); format: cell-based; details: 20 nM
Description: Human brain endothelial cells (HBEC) were obtained from small intracortical microvessels and capillaries (20-112 μm) harvested from temporal cortex from patients treated surgically for idiopathic epilepsy. Tissues were obtained with approval from the Institutional Research Ethics Committee. HBEC were separated from smooth muscle cells with cloning rings and grown at 37° C. in HBEC media containing Earle's salts, 25 mM 4-(2-hydroxyethyl)-1-piperazineethanesulfonic acid (HEPES), 4.35 g/L sodium bicarbonate, and 3 mM L-glutamine, 10% FBS, 5% human serum, 20% of media conditioned by murine melanoma cells (mouse melanoma, Cloudman S91, clone M-3, melanin-producing cells), 5 μg/ml insulin, […], 5 ng/ml selenium, and 10 μg/ml endothelial cell growth supplement. HBEC cultures were routinely characterized morphologically and biochemically.
(§1) In vitro angiogenesis was assessed by endothelial tube formation in growth factor reduced Matrigel™ (BD Bioscience, Bedford, Mass.). 24-well plates were coated with 300 μl of unpolymerized Matrigel™ (5-7 mg prot/ml) and allowed to polymerize for 90 min at 37° C. HBEC (40,000 cells) were suspended in 500 μl of either DME, serum-free U87MG CM (collected as described in Cell Cultures) or growth factors (VEGF, IGF-1, bFGF) in the absence or presence of 20 nM of either full length recombinant IGFBP-1 (IBP1, produced at BRI-NRC), IGFBP-2 (IBP2, produced at BRI-NRC and purchased from R&D systems, Minneapolis), IGFBP-3 (IBP3, from R&D systems), IGFBP-4 (IBP4, produced at BRI-NRC), IGFBP-5 (IBP5, produced at BRI-NRC and purchased from R&D systems) and IGFBP-6 (IBP6, from R&D systems) or the C-terminal protein fragments of IGFP-1 (CIBP1), IGFBP-2 (CIBP2), IGFBP-4 (CIBP4), IGFBP-5 (CIBP5) and IGFBP-6 (CIBP6), all produced at BRI-NRC). The ability of a synthetic membrane permeable cathepsin B inhibitor (CA074-ME, EMD Biosciences, Canada) to inhibit angiogenes and cathepsin B activity was also studied. CLT formation was analyzed after 24 h using an Olympus 1×50 microscope. Phase contrast images were captured with a digital video camera (Olympus U-CMT) and analyzed using Northern Eclipse v.5.0 software. Experiments were repeated three times. In order to determine the levels of cathepsin B activity in each experimental condition, at the end of the experiment, 6 μl of 26× Magic Red™ Cathepsin B reagent (Immunochemistry Technologies, LLC) were added to all the wells and maintained at 37° C. in dark for two hours. Cells were washed twice with HBSS and intracellular fluorescence quantification (530/25 nm excitation and 645/40 nm emission) was performed using a cytofluorimeter plate reader (Bio-Tek FL600).

[4] = test system: U87MG cells on CAM; assay: Experimental glioma assay: U87MG tumors on chick chorioallantoic membrane (CAM); format: in vivo, chicken (Gallus gallus)
Description: Fertilized chicken (Gallus gallus) eggs were obtained from the Canadian Food Inspection Agency and placed into an egg incubator at 37° C. and 67-70% humidity (day 0). At day 3, windows were cut in the egg shell and covered with surgical tape (Durapore,) until day 10. Then, a sterile Nunc Thermanox (Nunc Inc., Naperville, Ill.) plastic ring was placed onto the CAM, the delimited surface gently lacerated with a scalpel blade and a pellet of 10^6 U87MG cells deposited into the center of the ring. […] Digital photos were taken using a Canon 40D camera. At day 17, tumors were carefully removed from the CAM and weighted.

[5] = test system: human brain endothelial cells (HBEC); assay: Confocal microscopy of AF647-CIBP-4 in HBEC; format: cell-based; details: 100 nM AF647 conjugate, 90 min
Description: 80 μl of 1 mM Alexa Fluor 647-NHS in DMSO was added to 0.4 ml of recombinant CIBP-4 (0.2 mg/ml) in 100 mM carbonate pH 8.4, and sample was incubated overnight at room temperature. The reaction was stopped with 150 μl of 200 mM ethanolamine pH 8.0. To remove free dye, sample was diluted with 4.5 ml of water and loaded onto 1 ml Co^+2-Talon Metal Affinity column equilibrated with PBS. The column was exhaustively washed with PBS and CIBP-4 eluted with 2 ml of 1 M imidazole in PBS. To remove imidazole from AF647-CIBP-4 conjugate, the sample was concentrated to approximately 200 μl on Biomax (M.W. cut-off 5,000), diluted to original volume with PBS and concentrated again. That process of concentration/dilution was repeated three times. Final volume 0.5 ml (0.14 mg/ml). Recovery 86%.
HBEC (100,000 cell/well in a 24-well format plate) and U87MG (50,000) were respectively seeded on human fibronectin- (40 μg/ml) or poly-L-lysine-coated cover slips (Bellco Biotechnology) in 400 μl HBEC/U87MG media and grown until reached 80% confluence. Cells were then washed twice with DME and incubated in DME for 30 min at 37° C. […] Confocal images of […] were sequentially obtained using 488, 647 and 540-590 nm excitation laser lines to detect DiOC5(3) (510-525 nm emission) and Alexa 647 (670-810 nm emission) and Magic Red™ Cathepsin B (>610 nm) fluorescence.

[6] = test system: human brain endothelial cells (HBEC); details: disclosed in copending PCT/CA2006/000250; cited from earlier work
[7] = target: T1, cathepsin B (Homo sapiens, UniProt P07858); assay: Intracellular cathepsin B activity in HBEC seeded on Matrigel (Magic Red); format: cell-based; details: 20 nM
T1 construct: Levels of cathepsin B activity were also measured in U87MG CM alone or pre-incubated; endogenous in cells; host or cells: U87MG (ATCC), 3-day serum-free conditioned medium
Description: as §1
To determine the ability of these angiogenic factors to stimulate cathepsin B activity in HBEC, a membrane permeable cathepsin B target sequence peptide (Arginine-Arginine) linked to an amide substituted fluorophore, cresyl violet (Magic Red™, Immunochemistry Technologies, LLC) was used. Following enzyme cleavage at the arginine amide linkage site, the cresyl violet fluorophore generates red fluorescence when excited at 550-590 nm.

Molecule: CCCC(=O)Nc1ncnc2c1ncn2[C@@H]1O[C@@H]2COP(=O)(O)O[C@H]2[C@H]1OC(=O)CCC [dB-cAMP, dybutyril cAMP, reference compound]
inhibition of U87MG colony formation in soft agar (efficacy) ([1]; 500 μg/ml dB-cAMP, positive control): ~65%

B1: CIBP6: IGFBP-6 C-terminal fragment (aas 151-240, SEQ ID No. 10) with octahistidine tag (protein)
chain: MGELLLLLLLGLRLQLSLGIARNSAGVQDTEMGPCRRHLDSVLQQLQTEVYRGAQTLYVPNCDHRGFYRKRQCRSSQGQRRGPCWCVDRMGKSLPGSPDGNGSSSCPTGSSGSSTGHHHHHHHHG
modifications: octahistidine tag; C-terminal fragment of IGFBP-6
inhibition of U87MG colony formation in soft agar (efficacy) ([1]; 20 nM): ~25%

B2: IGFBP-4: recombinant full-length IGFBP-4 (SEQ ID No. 5) with StreptagII-octahistidine tag (protein)
chain: MLPLCLVAALLLAAGPGPSLGDEAIHCPPCSEEKLARCRPPVGCEELVREPGCGCCATCALGLGMPCGVYTPRCGSGLRCYPPRGVEKPLHTLMHGQGVCMELAEIEAIQESLQPSDKDEGDHPNNSFSPCSAHDRRCLQKHFAKIRDRSTSGGKMKVNGAPREDARPVPQGSCQSELHRALERLAASQSRTHEDLYIIPIPNCDRNGNFHPKQCHPALDGQRGKCWCVDRKTGVKLPGGLEPKGELDCHQLADSFREVDPWSHPQFEKTGHHHHHHHHGGQ
modifications: StreptagII-octahistidine tag; human
reduction of U87MG colony formation in soft agar [2]: able to reduce U87MG colony formation

B3: CIBP4: IGFBP-4 C-terminal fragment (aas 157-258, SEQ ID No. 6) with StreptagII-octahistidine tag (protein)
chain: MLLLLLLLGLRLQLSLGIASKVNGAPREDARPVPQGSCQSELHRALERLAASQSRTHEDLYIIPIPNCDRNGNFHPKQCHPALDGQRGKCWCVDRKTGVKLPGGLEPKGELDCHQLADSFREVDPWSHPQFEKTGHHHHHHHHGGQ
modifications: StreptagII-octahistidine tag; C-terminal fragment of IGFBP-4
inhibition of angiogenesis (CLT formation by HBEC in Matrigel) ([3]; stimuli U87MG CM, VEGF, IGF-1, bFGF, overnight): reduction in CLT formation
inhibition of U87MG colony formation in soft agar (efficacy) ([1]; 20 nM): ~50%
average size of the tumors in each weight interval vs vehicle ([4]; CAM): similar
increase in small size tumors (0-15 mg) vs vehicle ([4]; CAM): three-fold
reduction in number of large size tumors (20-36 mg) vs vehicle ([4]; CAM): 3 fold
shift of tumor weight frequency distribution towards smaller tumors vs vehicle ([4]; CAM, intervals 0-15, 15-20, 20-36 mg): ~3 fold
reduction of growth of U87MG cells on CAM (tumor weight) vs vehicle ([4]; CIBP4 250 ng/ml as printed, applied days 11-14, weighed day 17, p<0.005): 20-25%
co-localization with lysosomes (Lysotracker) in HBEC [5]: Co-localization
inhibition of angiogenic response induced by U87MG conditioned media and growth factors (bFGF, VEGF, IGF-1) [6]: can inhibit angiogenic response
reduction of U87MG colony formation in soft agar [2]: able to reduce U87MG colony formation

inhibition of intracellular cathepsin B activity induced by IGF-1 ([7]; IGF-1 (150 ng/ml)): completely inhibit
inhibition of intracellular cathepsin B activity induced by U87MG CM ([7]; U87MG CM): did not inhibit
inhibition of intracellular cathepsin B activity induced by VEGF ([7]; VEGF (20 ng/ml)): completely inhibit
inhibition of intracellular cathepsin B activity induced by bFGF ([7]; bFGF (20 ng/ml)): did not inhibit
B4: IBP2: recombinant full-length IGFBP-2 (aas 1-328, SEQ ID No. 3); produced at BRI-NRC and purchased from R&D systems (protein)
chain: MLPRVGCPALPLPPPPLLPLLPLLLLLLGASGGGGGARAEVLFRCPPCTPERLAACGPPPVAPPAAVAAVAGGARMPCAELVREPGCGCCSVCARLEGEACGVYTPRCGQGLRCYPHPGSELPLQALVMGEGTCEKRRDAEYGASPEQVADNGDDHSEGGLVENHVDSTMNMLGGGGSAGRKPLKSGMKELAVFREKVTEQHRQMGKGGKHHLGLEEPKKLRPPPARTPCQQELDQVLERISTMRLPDERGPLEHLYSLHIPNCDKHGLYNLKQCKMSLNGQRGECWCVNPNTGKLIQGAPTIRGDPECHLFYNEQQEARGVHTQRMQGSGWSHPQFEKTGHHHHHHHHGGQ
modifications: human
notes: produced at BRI-NRC and purchased from R&D systems
inhibition of angiogenic response induced by IGF-1 ([3]; HBEC on Matrigel, IGF-1 (150 ng/ml)): completely inhibit
inhibition of angiogenic response induced by U87MG CM ([3]; HBEC on Matrigel, U87MG CM): did not inhibit
inhibition of angiogenic response induced by VEGF ([3]; HBEC on Matrigel, VEGF (20 ng/ml)): completely inhibit
inhibition of angiogenic response induced by bFGF ([3]; HBEC on Matrigel, bFGF (20 ng/ml)): did not inhibit

B5: CIBP1: IGFBP-1 C-terminal domain (aa 170-259, SEQ ID No. 2) with octahistidine tag (protein)
chain: MGELLLLLLLGLRLQLSLGIASKKWKEPCRIELYRVVESLAKAQETSGEEISKFYLPNCNKNGFYHSRQCETSMDGEAGLCWCVYPWNGKRIPGSPEIRGDPNCQIYFNVQASSGSSTGHHHHHHHHG
modifications: octahistidine tag; C-terminal fragment of IGFBP-1
inhibition of U87MG colony formation in soft agar (efficacy) ([1]; 20 nM): ~25%
